Details in all cases: both partners purified
One assay has as its target T1, TSG101 UEV domain (human, UniProt Q99816 2-145).
T1 sequence (looked up): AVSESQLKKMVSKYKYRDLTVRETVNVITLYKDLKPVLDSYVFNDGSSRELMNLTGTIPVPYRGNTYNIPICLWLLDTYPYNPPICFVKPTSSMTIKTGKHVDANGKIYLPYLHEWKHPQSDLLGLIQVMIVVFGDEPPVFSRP
Kind of assay: fluorescence polarisation; direct binding (saturation curve): 1:1 dilution series of the protein domain with 5 nM FITC-labelled peptide; room temperature; 50 mM sodium phosphate buffer pH 7.4; fitted to the quadratic equation.

Assay [1] concerns the target T2, Clathrin N-terminal domain (NTD) (human, UniProt Q00610 1-364).
T2 construct: clathrin heavy chain, N-terminal domain; also called Clathrin NTD; CLTC-NTD; source: E. coli BL21-Gold(DE3), purified (GSH or Ni2+ beads), tag removed with protease
T2 sequence: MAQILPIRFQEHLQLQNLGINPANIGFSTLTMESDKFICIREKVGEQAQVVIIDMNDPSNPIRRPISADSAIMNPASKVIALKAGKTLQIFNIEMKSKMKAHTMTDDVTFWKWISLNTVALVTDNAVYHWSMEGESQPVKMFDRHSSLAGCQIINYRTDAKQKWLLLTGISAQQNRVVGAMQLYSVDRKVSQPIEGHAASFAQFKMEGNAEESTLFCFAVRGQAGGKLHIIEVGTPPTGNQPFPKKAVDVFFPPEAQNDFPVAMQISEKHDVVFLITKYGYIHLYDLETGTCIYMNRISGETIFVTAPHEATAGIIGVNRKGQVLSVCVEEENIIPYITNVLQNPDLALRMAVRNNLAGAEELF
The experiment in a line: fluorescence polarisation; displacement: unlabelled peptide diluted 1:1 in series and added to a pre-formed complex of protein domain and FITC-labelled probe peptide (5 nM in the measurement); 50 mM sodium phosphate pH 7.4, room temperature; KD calculated from the displacement curves; technical triplicates.

Another assay has as its target T3, RANBP2 RanBD4 (human).
T3 construct: the sheet prints 'RanBD1 4'); also called RANBP2 RanBD1 4; RAN2BP RanBD4; source: E. coli BL21-Gold(DE3), purified (GSH or Ni2+ beads), tag removed by protease
Kind of assay: fluorescence polarisation; direct binding (saturation curve): 1:1 dilution series of the protein domain with 5 nM FITC-labelled peptide; room temperature; 50 mM sodium phosphate buffer pH 7.4; fitted to the quadratic equation. A general note: In fluorescence polarisation assays a small probe gives low polarisation when free and higher when bound to something large.

In the next assay the target is T4, GGA1 VHS (human, UniProt Q9UJY5 17-147).
T4 construct: GGA1 VHS domain; limits in Dataset EV3; construct limits are in Dataset EV3; also called GGA1 VHS domain; source: E. coli BL21-Gold(DE3), purified, tag removed
T4 sequence (looked up): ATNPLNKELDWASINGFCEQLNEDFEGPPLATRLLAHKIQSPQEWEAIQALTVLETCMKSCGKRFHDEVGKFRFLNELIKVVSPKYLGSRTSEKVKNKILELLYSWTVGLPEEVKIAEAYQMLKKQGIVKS
The experiment in a line: fluorescence polarisation; displacement of a FITC-labelled probe peptide (5 nM in the measurement) from the protein domain (1-2 fold over the probe's KD) by a dilution series of unlabelled peptide; room temperature; 50 mM sodium phosphate pH 7.4; KD calculated from the displacement curve; for KPNA4 ARM one probe for each pocket.

Assay [2] has as its target T5, Clathrin N-terminal domain (NTD) (human, UniProt Q00610 1-364).
T5 construct: clathrin heavy chain, N-terminal domain; also called Clathrin NTD; CLTC-NTD; source: E. coli BL21-Gold(DE3), purified (GSH or Ni2+ beads), tag removed by protease
T5 sequence: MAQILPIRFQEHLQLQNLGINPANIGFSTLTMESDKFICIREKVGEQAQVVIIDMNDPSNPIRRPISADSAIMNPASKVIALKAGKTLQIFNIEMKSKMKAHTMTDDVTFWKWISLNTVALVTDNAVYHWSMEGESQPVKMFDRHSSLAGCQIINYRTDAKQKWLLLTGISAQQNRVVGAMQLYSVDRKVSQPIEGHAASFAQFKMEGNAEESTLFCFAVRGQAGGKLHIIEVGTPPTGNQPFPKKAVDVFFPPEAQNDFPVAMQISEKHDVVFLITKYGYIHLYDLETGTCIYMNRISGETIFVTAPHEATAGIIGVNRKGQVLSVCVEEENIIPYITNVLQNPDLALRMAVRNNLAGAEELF
Kind of assay: fluorescence polarisation; direct binding (saturation curve): 1:1 dilution series of the protein domain with 5 nM FITC-labelled peptide; room temperature; 50 mM sodium phosphate buffer pH 7.4; fitted to the quadratic equation.

The next assay has as its target T6, AP2 µ2 (human, UniProt Q96CW1 1-435).
T6 construct: AP-2 complex subunit mu (AP2 µ2); also called AP2 μ2; source: E. coli BL21-Gold(DE3), purified (GSH or Ni2+ beads), tag removed by protease
T6 sequence (looked up): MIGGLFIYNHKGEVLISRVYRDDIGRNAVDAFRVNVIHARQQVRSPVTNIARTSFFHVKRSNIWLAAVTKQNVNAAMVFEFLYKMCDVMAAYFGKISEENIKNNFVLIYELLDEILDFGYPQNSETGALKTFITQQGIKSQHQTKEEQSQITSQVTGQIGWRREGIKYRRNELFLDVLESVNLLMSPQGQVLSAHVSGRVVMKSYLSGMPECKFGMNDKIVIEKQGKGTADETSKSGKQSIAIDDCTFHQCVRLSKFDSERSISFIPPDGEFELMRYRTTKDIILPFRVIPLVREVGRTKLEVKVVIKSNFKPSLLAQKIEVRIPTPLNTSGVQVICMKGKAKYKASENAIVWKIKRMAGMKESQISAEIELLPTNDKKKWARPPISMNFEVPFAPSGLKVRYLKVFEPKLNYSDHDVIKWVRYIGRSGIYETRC
The description is as above.

In a further assay the target is T7, 14-3-3 Theta (human, UniProt P27348 1-245).
T7 sequence (looked up): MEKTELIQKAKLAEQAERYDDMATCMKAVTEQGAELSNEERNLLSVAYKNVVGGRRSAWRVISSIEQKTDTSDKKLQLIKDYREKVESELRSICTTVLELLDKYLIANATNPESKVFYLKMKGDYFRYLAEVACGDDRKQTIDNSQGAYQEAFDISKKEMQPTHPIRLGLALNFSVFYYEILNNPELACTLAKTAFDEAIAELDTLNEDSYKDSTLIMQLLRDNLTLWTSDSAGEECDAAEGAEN
Described as above.

The next assay concerns the target T8, FITC-HIV1_Gag (HIV-1 (printed as HIV1), also: FITC label, position not given here).
T8 chain: SLYPPLTSLR
The description is as above.

The next assay addresses T9, GGA1 VHS domain (human, UniProt Q9UJY5 17-147).
T9 construct: GGA1, VHS domain; source: E. coli BL21-Gold(DE3), purified (GSH or Ni2+ beads), tag removed by protease
T9 sequence (looked up): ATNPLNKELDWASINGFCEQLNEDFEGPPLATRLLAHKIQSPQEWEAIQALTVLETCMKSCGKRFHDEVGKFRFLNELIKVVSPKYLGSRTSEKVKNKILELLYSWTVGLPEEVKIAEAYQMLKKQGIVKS
Described as above.

Assay [3] has as its target SNX27 PDZ domain, MBP-tagged (human, UniProt Q96L92 43-136). Described as above.
The next assay deals with T10, FITC-MYC (also: FITC label, position not given here).
T10 chain: PAAKRVKLD
Described as above.

The target in a further assay is T11, FITC-NCOR2 (also: FITC label, position not given here).
T11 chain: PKRTYDMMEGRVGRAI
The description is as above.

Another assay has as its target T12, MAP1LC3A ATG8 (human).
T12 construct: MAP1LC3A, ATG8 domain; source: E. coli BL21-Gold(DE3), purified (GSH or Ni2+ beads), tag removed by protease
The assay is described as above.

The target in a further assay is T13, GABARAPL2 ATG8 (human).
T13 construct: GABARAPL2, ATG8 domain; source: E. coli BL21-Gold(DE3), purified (GSH or Ni2+ beads), tag removed by protease
The description is as above.

The next assay concerns the target MAP1LC3B ATG8 (human). Described as above.

Non-standard residues stand in square brackets, D forms with d. No end group written: not given here. pS = N[C@@H](COP(=O)(O)O)C(=O)O

What is called Kd is the equilibrium constant for the complex coming apart.

B1: FITC-HIV2_Gag (peptide)
chain: GLIPTAPPAD
modifications: also: FITC label, position not given here
In the assay with TSG101 UEV domain, B1 showed a Kd of 1.9 µM.

B2: GTSE1 692-707 peptide phosphorylated at S705 (peptide)
peptide: YGQLIDLSSPLIQL[pS]PE
notes: not part of GTSE1; G2 and S phase-expressed protein 1 (GTSE1), human, residues 692-707; also called pS705 GTSE1; source: synthetic peptide (Glbiochem or Genecust)
Take B2: the Kd in assay [1] is 105 µM.

B3: FITC-C7orf25 (peptide)
chain: KEALATPLPK
modifications: also: FITC label, position not given here
On to B3, for which, in the assay with RANBP2 RanBD4, the Kd is 22 µM.

B4: GTSE1_(145–160), phosphorylated (pS) (peptide)
chain: INLFEKEKEMKKSPTS
modifications: also: phosphoserine/threonine, site not given here
On to B4, for which the Kd with GGA1 VHS was 640 µM.

B5: FITC-NSP3 (peptide)
chain: SVDLITFDSV
modifications: also: FITC label, position not given here
On to B5, for which, in assay [2], the Kd turned out to be 26 µM.

B6: FITC-ATG9A (peptide)
chain: FDTEYQRLEAS
modifications: also: FITC label, position not given here
B6 registered a Kd in the assay with AP2 µ2 of 1.51 µM.

B7: FITC-2BTP (peptide)
chain: RQRSAP
modifications: also: FITC label, position not given here
Regarding B7, binding with 14-3-3 Theta was put at a Kd of 27.8 µM.

B8: PDCD6IP Alix V domain (domain or fragment)
chain: PVSVQQSLAAYNQRKADLVNRSIAQMREATTLANGVLASLNLPAAIEDVSGDTVPQSILTKSRSVIEQGGIQTVDQLIKELPELLQRNREILDESLRLLDEEEATDNDLRAKFKERWQRTPSNELYKPLRAEGTNFRTVLDKAVQADGQVKECYQSHRDTIVLLCKPEPELNAAIPSANPAKTMQGSEVVNVLKSLLSNLDEVKKEREGLENDLKSVNFDMTSKFLTALAQDGVINEEALSVTELDRVYGGLTTKVQESLKKQEGLLKNIQVSHQEFSKMKQSNNEANLREEVLKNLATAYDNFVELVANLKEGTKFYNELTEILVRFQNKCSDIVFARKTER
For B8, in the assay with FITC-HIV1_Gag, the affinity, expressed as Kd, was 3.6 µM.

B9: FITC-IGF2R (peptide)
chain: DDSDEDLLHI
modifications: also: FITC label, position not given here
Consider B9, for which the Kd in the assay with GGA1 VHS domain was 31 µM.

B10: GTSE1 692-707 peptide phosphorylated at S699 (peptide)
peptide: YGQLIDLS[pS]PLIQLSPE
notes: not part of GTSE1; G2 and S phase-expressed protein 1 (GTSE1), human, residues 692-707; also called pS699 GTSE1; source: synthetic peptide (Glbiochem or Genecust)
As for B10, the Kd in assay [1] was 109 µM.

B11: FITC-SYT16 (peptide)
chain: GSLEMETAFNSRGFED
modifications: also: FITC label, position not given here
For B11, the Kd in assay [3] was 7.5 µM.

B12: KPNA4 ARM domain (domain or fragment)
chain: GDYRVQNTSLEAIVQNASSDNQGIQLSAVQAARKLLSSDRNPPIDDLIKSGILPILVHCLERDDNPSLQFEAAWALTNIASGTSEQTQAVVQSNAVPLFLRLLHSPHQNVCEQAVWALGNIIGDGPQCRDYVISLGVVKPLLSFISPSIPITFLRNVTWVMVNLCRHKDPPPPMETIQEILPALCVLIHHTDVNILVDTVWALSYLTDAGNEQIQMVIDSGIVPHLVPLLSHQEVKVQTAALRAVGNIVTGTDEQTQVVLNCDALSHFPALLTHPKEKINKEAVWFLSNITAGNQQQVQAVIDANLVPMIIHLLDKGDFGTQKEAAWAISNLTISGRKDQVAYLIQQNVIPPFCNLLTVKDAQVVQVVLDGLSNILKMAEDEAETIGNLIEECGGLEKIEQLQNHENEDIYKLAYEIIDQFFSSDDIDEDPSLVPEAIQGGTFGFNSSANVPTEGFQF
B12: the Kd with FITC-MYC turned out to be 0.003 µM; with FITC-NCOR2 it was 0.013 µM.

B13: FITC-SQSTM1 (peptide)
chain: DDDWTHLSSK
modifications: also: FITC label, position not given here
B13: the Kd with MAP1LC3A ATG8 is 1.36 µM; with GABARAPL2 ATG8 it was 11 µM; with MAP1LC3B ATG8, 2.5 µM.

B14: GTSE1 692-707 peptide phosphorylated at S698 (peptide)
peptide: YGQLIDL[pS]SPLIQLSPE
notes: not part of GTSE1; G2 and S phase-expressed protein 1 (GTSE1), human, residues 692-707; also called pS698 GTSE1; source: synthetic peptide (Glbiochem or Genecust)
For B14, the Kd in assay [1] is 123 µM.

B15: GTSE1 692-707 peptide, unphosphorylated (peptide)
peptide: YGQLIDLSSPLIQLSPE
notes: not part of GTSE1; G2 and S phase-expressed protein 1 (GTSE1), human, residues 692-707; also called wild-type GTSE1; source: synthetic peptide (Glbiochem or Genecust)
As for B15, in assay [1], the Kd was 91 µM.
